Laboratory results taken from US20260042854A1 (SCIWIND BIOSCIENCES USA, published 2026).

T1: mouse GLP-1R (NM_021332.2) on HEK293 cells (mouse, UniProt O35659 22-463)
T1 sequence (looked up): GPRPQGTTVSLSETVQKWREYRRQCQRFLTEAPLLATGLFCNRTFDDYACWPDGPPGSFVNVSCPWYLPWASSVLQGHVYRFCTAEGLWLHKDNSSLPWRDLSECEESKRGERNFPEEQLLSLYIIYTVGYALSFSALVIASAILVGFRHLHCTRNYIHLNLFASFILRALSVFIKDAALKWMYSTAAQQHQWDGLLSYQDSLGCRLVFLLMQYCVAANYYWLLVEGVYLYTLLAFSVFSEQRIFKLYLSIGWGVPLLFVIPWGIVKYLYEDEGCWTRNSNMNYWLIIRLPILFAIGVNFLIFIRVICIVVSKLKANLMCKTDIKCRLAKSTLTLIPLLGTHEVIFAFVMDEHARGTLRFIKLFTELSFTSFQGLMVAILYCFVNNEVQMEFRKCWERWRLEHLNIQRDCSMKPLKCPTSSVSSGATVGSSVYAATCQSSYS


Experiments:
[1] = target: T2, hGLP-1R on the cell membrane (HEK293 cells overexpressing hGLP-1R) (human, UniProt P43220 24-463); experiment: cell-based or functional assay
[2] = target: T2, hGLP-1R on the cell membrane (HEK293 …); experiment: flow cytometry on HEK293 cells overexpressing hGLP-1R, PE anti-human IgG Fc
[3] = target: monkey GLP-1R (JN033215.1) on HEK293 cells (monkey); experiment: cell-based or functional assay
[4] = target: T1, mouse GLP-1R (NM_021332.2) on HEK293 …; experiment: cell-based or functional assay
[5] = target: T2, hGLP-1R on the cell membrane (HEK293 …); experiment: cell-based or functional assay; remark: listed apart in the source
[6] = target: T3, extracellular domain of hGLP-1R (NP_002053.3, aa 24-145), recombinant protein (human, UniProt P43220 24-145); experiment: ELISA, plate coated with hGLP-1R extracellular domain, anti-human Fc-HRP detection
T3 construct: range 24-145; Expressed as a recombinant protein; also called hGLP-1R recombinant protein

Binder | IC50, inhibition of GLP-1 (2.5 ng/mL) activity in hGLP-1R-CRE-Luciferase-HEK293 reporter gene assay [1] [nM] | EC50 [2] [nM] | IC50 (nM), inhibition of GLP-1 (1 ng/ml) induced cAMP (HTRF) in HEK293 cells transfected with monkey GLP-1R [3] [nM] | IC50 (nM), inhibition of GLP-1 (6 ng/ml) induced cAMP (HTRF) in HEK293 cells transfected with mouse GLP-1R [4] [nM] | IC50 (nM), inhibition of GLP-1 (1 ng/ml) induced cAMP (HTRF) in HEK293 cells transfected with human GLP-1R [5] [nM] | EC50 [6] [nM]
P16289 (antibody, human IgG4 S228P, kappa, V domains shown, Fully human Fab from a phage library, linked to IgG4 (S228P) constant regions; also called anti-GLP-1R antibody P16289) VH: EVQLVETGGGVVQPGRSLRLSCAASGFTFSSYAMHWVRQAPGKGLEWVAVISYDGSNKYYADSVKGRFTISRDNSKNTLYLQMNSLRAEDTAVYYCAREGYSSSWTYYYYYYMDVWGKGTMVTVSS VL: DIQLTQSPSSLSASVGDRVTITCRASQGVSRALAWYQQKPGKAPKLLIYDASYLEDGVPSRFSGSGSGTDFTLTISSLQPEDFATYYCQQSYSTPYTFGQGTKLEIKR | > 2820 | > 137 | > 5500 | > 5500 | > 5500 | 0.0048
P16288 (antibody, human IgG4 S228P, kappa, V domains shown, Fully human Fab from a phage library, linked to IgG4 (S228P) constant regions; also called anti-GLP-1R antibody P16288) VH: QVQLVQSGAEMKKPGASVKVSCKTSGYRFSTYVISWVRQTPGQGLEWMGWISPYTGDIDYAQKFQGRVTITADESTSTAYMELSRLRSDDTAVYYCARERDGYNFPGMDVWGQGTTVTVSS VL: DIQLTQSPSFLSASVGDRVTITCRASQGISSYLAWYQQKPGRAPKLLIYSASTLQRGVPSRFSGSGSGTDFTLTISSLQPEDYATYYCQQADSFPPSFGPGTKVDIKR | 13.4 | 9.9 | 162 |  | 211 | 0.013
